# Results from patent publication US20250049939A1, “NOVEL FLT3 ANTIBODIES AND ANTIBODY-DRUG-CONJUGATES BASED THEREON, THERAPEUTIC METHODS AND USES THEREOF IN COMBINATION WITH TYROSINE KINASE INHIBITORS” (TUBULIS GmbH, priority 2021, published 2025).
# How the values were obtained:
# [1] = biological target: T1, hFLT3/S50P/P54R (Homo sapiens, UniProt P36888, P54R/S50P); experiment: Cell surface binding to Ba/F3 epitope mutant FLT3, flow cytometry
# T1 construct: expressed in transfected cells; host or cells: Ba/F3 cells, retrovirally transduced with MSCV-IRES-YFP (pMIY) vector
# T1 sequence (P36888 27-993 S50P/P54R): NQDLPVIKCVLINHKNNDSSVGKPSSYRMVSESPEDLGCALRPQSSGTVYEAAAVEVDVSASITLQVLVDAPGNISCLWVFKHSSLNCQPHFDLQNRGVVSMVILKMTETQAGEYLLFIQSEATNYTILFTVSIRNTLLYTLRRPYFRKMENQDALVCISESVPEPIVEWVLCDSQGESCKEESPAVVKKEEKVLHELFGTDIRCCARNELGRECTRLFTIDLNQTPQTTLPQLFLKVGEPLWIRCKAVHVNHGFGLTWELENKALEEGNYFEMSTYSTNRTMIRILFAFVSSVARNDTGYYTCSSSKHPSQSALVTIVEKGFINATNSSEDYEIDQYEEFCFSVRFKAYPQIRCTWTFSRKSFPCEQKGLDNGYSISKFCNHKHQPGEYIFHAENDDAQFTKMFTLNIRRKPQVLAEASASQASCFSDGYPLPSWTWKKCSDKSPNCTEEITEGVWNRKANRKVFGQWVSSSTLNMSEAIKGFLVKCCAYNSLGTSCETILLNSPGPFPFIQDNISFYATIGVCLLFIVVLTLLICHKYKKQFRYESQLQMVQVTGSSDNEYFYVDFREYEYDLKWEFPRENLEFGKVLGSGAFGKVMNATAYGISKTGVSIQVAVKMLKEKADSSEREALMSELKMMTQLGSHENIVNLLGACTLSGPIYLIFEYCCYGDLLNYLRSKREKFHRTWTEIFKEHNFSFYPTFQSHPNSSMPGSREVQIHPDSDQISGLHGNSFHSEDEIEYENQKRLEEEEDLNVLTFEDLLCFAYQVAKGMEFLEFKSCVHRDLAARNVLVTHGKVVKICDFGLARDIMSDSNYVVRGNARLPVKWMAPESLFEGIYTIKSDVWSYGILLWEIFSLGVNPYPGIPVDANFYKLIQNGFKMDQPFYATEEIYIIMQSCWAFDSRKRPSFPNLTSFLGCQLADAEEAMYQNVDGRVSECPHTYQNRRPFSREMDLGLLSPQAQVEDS
# From the text: FIG. 1: Evaluation of epitope specificity and internalization capability of anti-FLT3 monoclonal antibodies. (A) Affinity of seven anti-FLT3 monoclonal antibody (mab) clones to recombinant human FLT3 measured in enzyme-linked immunosorbent assay (ELISA) normalized to the binding of the antibodies to BSA control. […] (B) Schematic FLT3 receptor. Black arrows indicate common mutations and blue arrows indicate the three identified epitopes of seven anti-FLT3 antibodies analyzed in linear epitope mapping by PEPperPRINT. Figure was created with BioRender.com. (C) Binding and temperature induced internalization of anti-FLT3 antibodies in Ba/F3 cells expressing human wildtype FLT3. […] Remaining surface-bound antibody was detected in flow cytometry. […] MFI=mean fluorescence intensity. […] (D) Cell surface binding of 20D9 mab or control human IgG1 antibody to Ba/F3 cells stably expressing pMIY (Ba/F3-pMIY) empty vector (ev), human wildtype (hFLT3 wt) or ITD mutant human FLT3 (hFLT3ITD) was measured in flow cytometry. […] (E) Temperature induced internalization of 4B12 mab in MOLM-13 (FLT3 positive) cells after 30 min incubation at 37° C. compared to 4° C. and HL-60 (FLT3 negative) after 37° C. incubation assessed in immunofluorescence staining. […] (G) Cell surface binding of 20D9 mab or control hIgG1 antibody to Ba/F3-PMIY ev, hFLT3 wt or epitope mutant FLT3 (hFLT3/S50P/P54R) measured in flow cytometry. […]
# [2] = tested on: FLT3 mutants FLT3/NPOS, FLT3/D835Y, FLT3/D835V, FLT3/NPOS D835Y, FLT3/NPOS N676K, FLT3/NPOS F6911, FLT3/NPOS F691L; experiment: Cell surface binding to Ba/F3 FLT3ITD and TKD mutants; parameters: species or system human
# Experimental: For FLT3 expression analysis, cells were stained on ice with primary mouse anti-FLT3-AF647 antibodies for 30 min. For antibody binding studies, cells were stained on ice with chimeric (20D9) or humanized anti-FLT3 antibodies (in house) or IgG1 control with or without Leu234Ala/Leu235Ala (LALA)-mutation in the Fc region and secondary antibody goat F(ab′)2 Anti-Human IgG-AF647 (2042-31) purchased from Southern Biotech for 30 min, respectively. Binding and expression were subsequently measured at the flow cytometer (BD FACSCanto II) and the results were evaluated with FlowJo version 10.8.1.
molecule,measurement,setting,value
"20D9: chimeric (rat variable regions, human IgG1) anti-FLT3 monoclonal antibody; VH SEQ ID NO: 5, VL SEQ ID NO: 6 (antibody, V domains shown, Clone 20D9, heavy chain variable region without a signal seqeunce; Clone 20D9, light chain variable region without a signal seqeunce) VH: DVMLVESGGGLVQPGRSLKLSCVASGFTFNNYWMTWIRQAPGKGLEWIASITKTGGGTYYPDSVKGRFTISRDNAKSTLYLQMNSLRSEDTATYYCTTLQQLGVMDAWGQGASVTVSSA VL: DVQMTQSPSVLSASVGDRITLNCKASQNINKELNWYQQKLGEAPKLLIYNTNNLQTGIPSRFSGSGSGTDYTLTISSLQPEDVATYFCFQHKSWPLTFGSGTKLEIKR",Binding to human FLT3 with epitope region mutated to murine variant (S50P/P54R),[1],not able to bind
same,Binding to FLT3 with common mutations,[2],also binds to FLT3 with common mutations
